From the supplement of paper PMC10567573

B1: ZNF193 (parent)
chain: QCIECGKSFNRHCNLIRHQKIHTV

Variants of: B1
Test: protein stability index of a GFP-peptide fusion (GPS, HEK-293T) (PSI 1-6); higher = more stable
Details: c terminus: a fixed tail appended
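Note: lentivirally expressed fusions sorted by FACS into six bins by GFP to DsRed ratio, PSI derived from sequencing read proportions per bin multiplied by bin number.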

Protein stability index of substitutions, site by site:
N10: V 3.75, G 3.29, E 3.92, A 3.54, C 3, W 3.51, D 3.88, S 3.48, Q 3.73, F 3.02, I 3.28, L 2.48, H 3.91, Y 2.98, T 4.08, K 4.64, R 3.97, M 3.14, P 2.8
E4: G 2.04, Y 3.06, H 4.27, S 2.75, P 1.39, F 3.94, T 3.42, D 2.78, Q 3.43, W 3.85, N 2.76, C 2.54, M 3.1, R 3.71, L 2.66, I 3.54, V 3.48, A 3.12, K 3.1
Q19: A 2.84
N14: I 2.6, T 3.44, F 2.32, V 2.83, K 3.38, S 3.71, C 3.43, P 2.25, G 2.72, L 3.11, D 5.09, Y 2.33, Q 4.31, H 3.44, E 3.94, R 3.12, A 3.9, M 3.5, W 2.29
F9: N 2.56, Y 3.01, R 2.77, M 2.51, C 3.47, V 1.92, L 1.9, E 2.93, I 2.13, G 2.86, H 2.55, K 3.06, A 2.24, S 2.83, P 3.25, Q 2.88, T 2.59, D 3.09, W 2.77
G6: L 1.97, D 2.62, Y 2.17, W 1.5, F 1.59, E 2.84, I 1.42, M 2.11, H 2.15, K 3.54, S 2.54, Q 2.44, C 1.99, A 2.38, N 2.38, P 2.18, T 2.23, R 2.5, V 1.92
H12: Y 3.27, N 3.52, P 3.74, E 3.81, R 3.22, S 3.22, L 4.23, C 2.92, K 3.98, G 3.02, Q 4, V 3.76, T 3.71, M 3.65, A 3.48, W 3.19, D 3.36, I 3.43, F 3.06
R17: H 3.13, C 3.57, V 2.99, F 2.22, P 2.15, I 2.31, Y 2.52, N 3.24, M 2.95, T 3.75, E 4.18, L 2.9, Q 3.91, A 3.31, D 3.78, G 3.07, S 3.4, W 2.66, K 3.74
I3: L 3.87, A 4.7, K 3.87, Y 3.38, C 3.63, S 4.17, V 3.73, N 3.65, Q 4.09, W 3.18, G 3.72, E 4.31, H 4.06, M 3.69, T 4.2, F 3.32, R 3.59, D 3.4, P 4.11
C13: D 4.1, S 3.95, Y 3.29, V 3.88, Q 3.32, G 3.75, I 3.04, F 2.62, H 3.56, T 3.29, E 4.55, N 3.2, A 4.31, R 3.91, M 2.91, K 3.74, L 2.73, P 2.99, W 3.04
R11: Y 3.04, W 2.62, A 3.38, E 3.76, Q 2.96, L 3.5, M 2.86, S 4.1, T 4.4, N 4.26, V 3.21, G 3.25, K 3.7, I 2.89, F 3.07, C 3.55, P 3.21, D 4.37, H 3.5
L15: D 3.18, E 3.06, I 2.24, H 4.19, F 3.32, N 3.29, R 3.01, P 2.39, Q 2.9, C 3.6, M 3.35, K 2.94, G 3.04, V 2.34, Y 3.35, A 2.82, W 4.43, T 2.29, S 2.62
S8: H 3.29, L 4.35, I 4.05, N 3.47, G 2.49, Q 3.02, W 3.17, P 3.13, D 3.4, E 3.52, V 4.35, R 3.77, A 2.84, K 3.64, C 3.85, M 3.48, F 4.03, T 3.96, Y 3.43
C5: V 2.13, T 1.95, S 2.56, G 2.01, A 2.36, M 1.94, K 2.09, Y 2.26, D 2.52, F 1.44, Q 2.6, W 2.07, H 1.98, R 2.22, L 1.54, E 2.71, P 2.49, N 1.79, I 1.53
C2: T 1.74, Q 2.14, R 1.72, S 1.81, P 1.34, Y 2.03, H 1.6, F 1.07, G 2.13, K 1.95, I 2.06, N 2.45, L 1.63, W 2.04, A 1.66, V 2.73, E 2.77, D 2.41, M 1.71
K7: C 2.51, F 2.37, P 2.59, D 2.57, L 2.86, H 2.35, W 2.18, G 2.13, A 3.74, E 3.86, R 3.05, Q 3.45, M 3.34, V 2.44, I 3.08, N 2.34, Y 2.29, S 2.82, T 2.93
I16: W 2.46, T 3.3, S 3.41, P 2.56, A 2.74, D 2.96, L 3.29, V 3.69, R 3.51, E 3.44, F 2.43, H 3.18, Q 3.64, K 4, C 3.9, N 2.89, G 3.02, Y 2.94, M 3.1
H18: I 2, S 2.36, W 2.21, P 2.05, K 2.38, M 1.65, G 2.91, T 1.66, R 1.87, D 1.97, V 1.45, N 2.31, A 2.45, Y 1.41, E 2.33, C 2.55, F 2.4, Q 2.24, L 1.71
Q1: T 4.04, Y 2.99, L 3.14, M 3.54, W 2.3, V 3.21, N 2.56, R 4.1, S 3.44, P 2.62
